Substrate in this data set: CC(CN)CNCCCCNCC(C)CN
The experiment in a line: Substrate activity at recombinant human SMOX assessed as Km at 2000 to 6000 uM. The data set is classed as ADME.

As a reminder, the Km is the substrate concentration at which the rate is half of its maximum. One may read the Vmax as the top rate of the reaction or transport when substrate is in excess.

B1: Spermine oxidase (Homo sapiens) (protein)
chain: MQSCESSGDSADDPLSRGLRRRGQPRVVVIGAGLAGLAAAKALLEQGFTDVTVLEASSHIGGRVQSVKLGHATFELGATWIHGSHGNPIYHLAEANGLLEETTDGERSVGRISLYSKNGVACYLTNHGRRIPKDVVEEFSDLYNEVYNLTQEFFRHDKPVNAESQNSVGVFTREEVRNRIRNDPDDPEATKRLKLAMIQQYLKVESCESSSHSMDEVSLSAFGEWTEIPGAHHIIPSGFMRVVELLAEGIPAHVIQLGKPVRCIHWDQASARPRGPEIEPRGEGDHNHDTGEGGQGGEEPRGGRWDEDEQWSVVVECEDCELIPADHVIVTVSLGVLKRQYTSFFRPGLPTEKVAAIHRLGIGTTDKIFLEFEEPFWGPECNSLQFVWEDEAESHTLTYPPELWYRKICGFDVLYPPERYGHVLSGWICGEEALVMEKCDDEAVAEICTEMLRQFTGNPNIPKPRRILRSAWGSNPYFRGSYSYTQVGSSGADVEKLAKPLPYTESSKTAPMQVLFSGEATHRKYYSTTHGALLSGQREAARLIEMYRDLFQQGT
In the case of B1, the Km is 121 µM and the Vmax was 0.124 µmol/min/mg.

For the origin of these results see ChEMBL document CHEMBL4321859, “Unforeseen Possibilities To Investigate the Regulation of Polyamine Metabolism Revealed by Novel C-Methylated Spermine Derivatives” (J Med Chem, 2019).
